We go through 1 molecule from US20140348832A1 (Sanofi, published 2014).

The target of assay [1] is MHCII (pMHCII) on mouse antigen presenting cells. In words: cell-based or functional assay.
Assay [2] deals with mouse cytotoxic T lymphocyte associated antigen-4 (CTLA-4) on activated T cells (mouse, UniProt P09793 36-223). In words: cell-based or functional assay.

B1: BsB, bispecific fusion protein CD80wa-LAG-3-Fc (mouse CD80w88a(aa1-235)-G9-Lag-3(aa25-260)-IgG2a(aa241-474)) (Fc fusion)
chain: VDEQLSKSVKDKVLLPCRYNSPHEDESEDRIYWQKHDKVVLSVIAGKLKVAPEYKNRTLYDNTTYSLIILGLVLSDRGTYSCVVQKKERGTYEVKHLALVKLSIKADFSTPNITESGNPSADTKRITCFASGGFPKPRFSWLENGRELPGINTTISQDPESELYTISSQLDFNTTRNHTIKCLIKYGDAHVSEDFTWGGGGGGGGGGPGKELPVVWAQEGAPVHLPCSLKSPNLDPNFLRRGGVIWQHQPDSGQPTPIPALDLHQGMPSPRQPAPGRYTVLSVAPGGLRSGRQPLHPHVQLEERGLQRGDFSLWLRPALRTDAGEYHATVRLPNRALSCSLRLRVGQASMIASPSGVLKLSDWVLLNCSFSRPDRPVSVHWFQGQNRVPVYNSPRHFLAETFLLLPQVSPLDSGTWGCVLTYRDGFNVSITYNLKVLGLEPVAPRGPTIKPCPPCKCPAPNLLGGPSVFIFPPKIKDVLMISLSPMVTCVVVDVSEDDPDVQISWFVNNVEVLTAQTQTHREDYNSTLRVVSALPIQHQDWMSGKEFKCKVNNKALPAPIERTISKPKGSVRAPQVYVLPPPEEEMTKKQVTLTCMVTDFMPEDIYVEWTNNGKTELNYKNTEPVLDSDGSYFMYSKLRVEKKNWVERNSYSCSVVHEGLHNHHTTKSFSRTPGK
Regarding B1, in assay [1], the “EC50 of BsB for inducing Tregs in vitro” value was roughly 100 nM and the “potency of BsB at inducing the production of Tregs (EC50)” value was greater than 100 nM. In assay [2], the “EC50 of BsB for inducing Tregs in vitro” value was roughly 100 nM and the “potency of BsB at inducing the production of Tregs (EC50)” value was greater than 100 nM.
